Changes are numbered by the printed parent chain. Names may count otherwise.
Tests used:
[1] = biological target: T1, MeT1 (Mycolicibacterium hassiacum, UniProt K5B7F3); experiment: SahH-coupled DTNB assay of SAH release; type: biochemical; settings: 100 μM MnCl2, BTP pH 7.5
T1 construct: full length, C-terminal His6 tag (pET30a), synthetic gene, E. coli BL21(DE3)

[2] = substrate: CCCO[C@H]1O[C@H](CO)[C@@H](O[C@H]2O[C@H](CO)[C@@H](O[C@H]3O[C@H](CO)[C@@H](O[C@H]4O[C@H](CO)[C@@H](O)[C@H](OC)[C@@H]4O)[C@H](OC)[C@@H]3O)[C@H](OC)[C@@H]2O)[C@H](OC)[C@@H]1O; experiment: coupled PK/LDH NADH assay of GDP release; type: biochemical, Mycolicibacterium hassiacum; settings: 2.5 mM GDP-Man, 7.5 mM MgCl2, 5 mM NaCl, 0.1% Triton X-100, 50 mM BTP pH 8.5, 37 °C, acceptor
Text: (§1) coupled PK/LDH NADH assay of GDP release on ManT

[3] = substrate: Nc1nc2c(ncn2[C@@H]2O[C@H](COP(=O)(O)OP(=O)(O)O[C@H]3O[C@H](CO)[C@@H](O)[C@H](O)[C@@H]3O)[C@@H](O)[C@H]2O)c(=O)[nH]1; experiment: coupled PK/LDH NADH assay of GDP release; type: biochemical, Mycolicibacterium hassiacum; settings: 0.1% Triton X-100, 50 mM BTP pH 8.5, 37 °C, donor
Text: as §1

[4] = substrate: CCCO[C@H]1O[C@H](CO)[C@@H](O[C@H]2O[C@H](CO)[C@@H](O[C@H]3O[C@H](CO)[C@@H](O[C@H]4O[C@H](CO)[C@@H](O)[C@H](O)[C@@H]4O)[C@H](O)[C@@H]3O)[C@H](O)[C@@H]2O)[C@H](O)[C@@H]1O; experiment: coupled PK/LDH NADH assay of GDP release; type: biochemical, Mycolicibacterium hassiacum; settings: 5 mM GDP-Man, 7.5 mM MgCl2, 5 mM NaCl, 0.1% Triton X-100, 50 mM BTP pH 8.5, 37 °C, acceptor
Text: as §1

[5] = 3.5 mM sMetMan4, 7.5 mM MgCl2, 5 mM NaCl
[6] = 1.5 mM sMetMan4, 7.5 mM MgCl2, 5 mM NaCl

T1 sequence (K5B7F3 whole entry): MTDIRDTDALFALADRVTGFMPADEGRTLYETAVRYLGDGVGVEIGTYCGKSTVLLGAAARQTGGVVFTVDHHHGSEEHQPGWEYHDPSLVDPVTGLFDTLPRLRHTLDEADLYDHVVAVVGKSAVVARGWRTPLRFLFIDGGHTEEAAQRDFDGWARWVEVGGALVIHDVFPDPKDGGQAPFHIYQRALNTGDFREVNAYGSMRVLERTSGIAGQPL

## C[S+](CC[C@H](N)C(=O)O)C[C@H]1O[C@@H](n2cnc3c(N)ncnc32)[C@H](O)[C@@H]1O (stereo partly drawn) [SAM, S-adenosyl-methionine]
[1]; 1.5 mM oligomannoside acceptor, methyl donor
  SahH-coupled DTNB assay of SAH release: quantified from the S-adenosyl-homocysteine (SAH) released from SAM through a continuous

## CO[C@@H]1[C@H](O)[C@@H](O[C@H]2[C@H](OC)[C@H](O)C(O)O[C@@H]2CO)O[C@H](CO)[C@H]1O (stereo partly drawn) [sMetMan2]
[1]; 1 mM SAM, 1.5 mM acceptor
  SahH-coupled DTNB assay of SAH release: The activity of MeT1 toward the synthetic substrate sMetMan2 and the two natural substrates

B1: ManT (Mycolicibacterium hassiacum DSM 44199; E313A) (protein)
chain: MRIALLSYRSKTHCGGQGVYVRHLSRELAELGHDVEVFSGQPYPEGLDPRVRLTKVPSLDLYREPDPFRIPRPSEIKTSIDLEELLTTWTAGFPEPKTFSLRAARVLAGRRGDFDVVHDNQCLGTGLLQIAKMGFPLVATVHHPITRDREVEVAAARWWRKPLVRRWYGFVEMQKRVARQIPELLTVSSASASDILTDFAVSPEQLHVVPLGVDTKLFQPREGRVRNRIIAIASADVPLKGVSHLLHAVARLRVERDVELQLVTKLEPNGPTEKLIAELGISDIVHTSSGLSDEELAALLASAEVACIPSLYAGFSLPAVEAMASGTPIVASRAGALPEVVGPDGECARLVTPADVDELTAVLGRLLDSPRELRRLGDNGRRRAVEVFSWQSVAAQTVAVYEKAIARVAAC
notes: full length, N-terminal His6 tag (pETM11, tag not removed), synthetic gene, E. coli BL21(DE3); purified with Triton X-100
[2]
  Km: 1180 ± 300 µM
  kcat/Km: 5 ± 1 M⁻¹ s⁻¹
[3]; [5]
  Km: 1230 ± 300 µM
  kcat/Km: 7 ± 2 M⁻¹ s⁻¹

B2: ManT (Mycolicibacterium hassiacum DSM 44199) (protein)
chain: B1 chain with A313E
notes: as for B1
[4]
  Km: 2780 ± 450 µM
  kcat/Km: 9 ± 2 M⁻¹ s⁻¹
[2]
  Km: 130 ± 30 µM
  kcat/Km: 362 ± 68 M⁻¹ s⁻¹
[3]; [6]
  Km: 280 ± 50 µM
  kcat/Km: 171 ± 33 M⁻¹ s⁻¹
